One experiment deals with T1, Human HGFv1 (human, UniProt P14210 32-728).
T1 construct: Biotinylated in the bridging ELISA; also called HGF (fl); HGF full length
Put plainly: Biacore SPR, antibody captured on anti-human IgG, HGF as analyte, 37 C, 1:1 model. In general terms: SPR reads the build-up and loss of mass on a sensor chip optically.

The target of another experiment is human HGFδ5 (human) (UniProt P14210). The experiment is described as above.
The target in experiment [1] is recombinant human VEGF (hVEGF-165) (human) (UniProt P15692). Put plainly: Proteon SPR estimate, mAb-dAb in transfection supernatant.

T1 sequence (P14210 32-728 limits assumed, form in doubt): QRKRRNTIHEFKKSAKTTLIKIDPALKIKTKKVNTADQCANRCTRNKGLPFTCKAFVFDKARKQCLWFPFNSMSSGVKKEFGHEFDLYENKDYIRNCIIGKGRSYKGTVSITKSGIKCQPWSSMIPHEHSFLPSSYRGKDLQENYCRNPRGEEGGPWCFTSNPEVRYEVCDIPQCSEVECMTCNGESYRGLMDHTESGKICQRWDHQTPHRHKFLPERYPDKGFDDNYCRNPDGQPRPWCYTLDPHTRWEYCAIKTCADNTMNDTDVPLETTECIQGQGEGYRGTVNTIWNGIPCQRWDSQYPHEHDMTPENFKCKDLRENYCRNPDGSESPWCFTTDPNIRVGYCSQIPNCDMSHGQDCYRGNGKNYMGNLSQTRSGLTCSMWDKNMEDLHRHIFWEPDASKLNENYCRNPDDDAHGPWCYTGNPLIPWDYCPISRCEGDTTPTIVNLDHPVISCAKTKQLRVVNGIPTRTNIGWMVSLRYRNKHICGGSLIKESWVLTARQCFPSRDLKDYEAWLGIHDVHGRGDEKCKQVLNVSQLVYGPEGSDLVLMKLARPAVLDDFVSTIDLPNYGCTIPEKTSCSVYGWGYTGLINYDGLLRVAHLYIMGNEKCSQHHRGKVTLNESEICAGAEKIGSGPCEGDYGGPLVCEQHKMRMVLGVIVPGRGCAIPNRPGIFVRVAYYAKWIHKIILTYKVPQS
human HGFδ5 (human), sequence (P14210 other isoform, or with tags, fused parts or gaps mutant): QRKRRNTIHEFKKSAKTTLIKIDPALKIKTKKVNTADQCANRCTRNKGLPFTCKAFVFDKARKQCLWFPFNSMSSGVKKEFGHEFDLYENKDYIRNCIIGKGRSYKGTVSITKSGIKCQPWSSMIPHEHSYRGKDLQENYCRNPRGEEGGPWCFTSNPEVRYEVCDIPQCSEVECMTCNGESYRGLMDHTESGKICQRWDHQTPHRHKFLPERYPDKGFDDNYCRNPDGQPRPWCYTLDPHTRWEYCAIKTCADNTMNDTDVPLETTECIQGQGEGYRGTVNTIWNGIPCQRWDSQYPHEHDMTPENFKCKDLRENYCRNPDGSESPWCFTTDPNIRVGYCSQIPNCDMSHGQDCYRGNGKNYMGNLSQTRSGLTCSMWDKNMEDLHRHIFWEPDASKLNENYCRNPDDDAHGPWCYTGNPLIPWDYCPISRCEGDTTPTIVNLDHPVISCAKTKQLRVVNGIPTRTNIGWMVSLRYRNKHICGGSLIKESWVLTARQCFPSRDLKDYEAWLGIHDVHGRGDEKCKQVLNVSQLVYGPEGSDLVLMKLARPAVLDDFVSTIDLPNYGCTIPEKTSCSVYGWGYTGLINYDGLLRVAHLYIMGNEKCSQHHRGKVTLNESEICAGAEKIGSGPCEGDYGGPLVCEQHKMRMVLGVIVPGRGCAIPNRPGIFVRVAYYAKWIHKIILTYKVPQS

B1: BPC 1856, anti-HGF S260116C12VL1 Chimera (antibody, V domains shown)
VH: QIQLRQSGAGLMKPGASVKLSCKATGYTFTGYWIEWVKQRPGHDLEWIGEILPGSGTTNYNEKFKGKATFTADTSSNTAYMQLSSLTTEDSAIYYCARGGYYYGSSYDSWGQGTLVTVSS
VL: DIVLTQSPASLAVSLGQRATISCRASESVSIHGTHLMHWYQQKPGQPPKLLIYAASNLESGVPARFSGSGSETDFTLNIHPVEEEDAATYFCQQSIEDPYTFGGGTKLEIKR
notes: also called chimeric mAb BPC1856
Turning to B1, in the experiment with Human HGFv1, the Kd – broadly, a measure of binding affinity in units of concentration – was found to be 0.034 nM; the koff – broadly, a measure of how fast the partners let go of each other – came out at 1.49e-05 s⁻¹; the kon (commonly a measure of how fast the partners come together) is 434000 M⁻¹ s⁻¹. In the experiment with human HGFδ5 (human), this molecule had a dissociation constant (Kd) of 0.042 nM, a koff of 1.78e-05 s⁻¹ and a kon of 423000 M⁻¹ s⁻¹.

B2: DT02-K-044-077 in Pascolizumab-(GSTVAAPS)3-T mAb-dAb format (bispecific antibody, part only; not given: Pascolizumab chains and linker, not shown: another chain or arm of the molecule; small tags and cut ends)
dAb: DIQMTQSPSSLSASVGDRVTITCRASQWIGPELAWYQQKPGKAPKLLIYHGSILQSGVPSRFSGSGSGTDFTLTISSLQPEDFATYYCQQYMYYPHTFGQGTKVEIKR
For the molecule B2, in experiment [1], the dissociation constant Kd was 0.04 nM.

B3: DT02-K-044-240 in Pascolizumab-(GSTVAAPS)3-T mAb-dAb format (bispecific antibody, part only; not given: pascolizumab chains and linker, not shown: another chain or arm of the molecule; large carriers; small tags and cut ends)
dAb: DIQMTQSPSSLSASVGDRVTITCRASQWIGPELSWYQQKPGKAPKLLIYHGSILQSGVPSRFSGSGSGTDFTLTISSLQPEDFATYYCQQYMYYPPTFGQGTKVEIKR
For B3, in experiment [1], the dissociation constant Kd was 0.043 nM.

B4: DT02-K-044-090 in Pascolizumab-(GSTVAAPS)3-T mAb-dAb format (bispecific antibody, part only; not given: pascolizumab chains and linker, not shown: another chain or arm of the molecule; large carriers; small tags and cut ends)
dAb: DIQMTQSPSSLSASVGDRVTITCRASQWIGPELQWYQQKPGKAPKLLIYHGSILQSGVPSRFSGSGSGTDFTLTISSLQPEDFATYYCQQYMYYPHTFGQGTKVEIKR
Turning to B4, the Kd in experiment [1] was 0.02 nM.

B5: DT02-K-044-238 in Pascolizumab-(GSTVAAPS)3-T mAb-dAb format (bispecific antibody, part only; not given: Pascolizumab chains and linker, not shown: another chain or arm of the molecule; small tags and cut ends)
dAb: DIQMTQSPSSLSASVGDRVTITCRASQWIGPELSWYQQKPGKAPKLLIYHGSILQSGVPSRFSGSGSGTDFTLTISSLQPEDFATYYCQQYMYYPMTFGQGTKVEIKR
B5: in experiment [1], the Kd is 0.044 nM.

B6: DT02-K-044-083 in Pascolizumab-(GSTVAAPS)3-T mAb-dAb format (bispecific antibody, part only; not given: pascolizumab heavy and light chains, not shown: another chain or arm of the molecule; small tags and cut ends)
dAb: DIQMTQSPSSLSASVGDRVTITCRASQWIGPELHWYQQKPGKAPKLLIYHGSILQSGVPSRFSGSGSGTDFTLTISSLQPEDFATYYCQQYMYYPHTFGQGTKVEIKR
As for B6, the Kd in experiment [1] was 0.049 nM.

B7: DT02-K-044-235 in Pascolizumab-(GSTVAAPS)3-T mAb-dAb format (bispecific antibody, part only; not given: pascolizumab chains and linker, not shown: another chain or arm of the molecule; small tags and cut ends)
dAb: DIQMTQSPSSLSASVGDRVTITCRASQWIGPELSWYQQKPGKAPKLLIYHGSILQSGVPSRFSGSGSGTDFTLTISSLQPEDFATYYCQQYMYYPITFGQGTKVEIKR
Regarding B7, the Kd in experiment [1] was 0.004 nM.

B8: DT02-K-044-093 in Pascolizumab-(GSTVAAPS)3-T mAb-dAb format (bispecific antibody, part only; not given: Pascolizumab chains and linker, not shown: another chain or arm of the molecule; large carriers; small tags and cut ends)
dAb: DIQMTQSPSSLSASVGDRVTITCRASQWIGPELVWYQQKPGKAPKLLIYHGSILQSGVPSRFSGSGSGTDFTLTISSLQPEDFATYYCQQYMYYPHTFGQGTKVEIKR
Turning to B8, in experiment [1], the Kd was 0.034 nM.

B9: DT02-K-044-239 in Pascolizumab-(GSTVAAPS)3-T mAb-dAb format (bispecific antibody, part only; not given: Pascolizumab chains and linker, not shown: another chain or arm of the molecule; large carriers; small tags and cut ends)
dAb: DIQMTQSPSSLSASVGDRVTITCRASQWIGPELSWYQQKPGKAPKLLIYHGSILQSGVPSRFSGSGSGTDFTLTISSLQPEDFATYYCQQYMYYPNTFGQGTKVEIKR
With B9, the Kd in experiment [1] is 0.013 nM.

B10: DT02-K-044-095 in Pascolizumab-(GSTVAAPS)3-T mAb-dAb format (bispecific antibody, part only; not given: pascolizumab chains and linker, not shown: another chain or arm of the molecule; large carriers; small tags and cut ends)
dAb: DIQMTQSPSSLSASVGDRVTITCRASQWIGPELYWYQQKPGKAPKLLIYHGSILQSGVPSRFSGSGSGTDFTLTISSLQPEDFATYYCQQYMYYPHTFGQGTKVEIKR
As for B10, the dissociation constant Kd in experiment [1] was 0.006 nM.

B11: DT02-K-044-247 in Pascolizumab-(GSTVAAPS)3-T mAb-dAb format (bispecific antibody, part only; not given: pascolizumab chains and linker, not shown: another chain or arm of the molecule; large carriers; small tags and cut ends)
dAb: DIQMTQSPSSLSASVGDRVTITCRASQWIGPELSWYQQKPGKAPKLLIYHGSILQSGVPSRFSGSGSGTDFTLTISSLQPEDFATYYCQQYMYYPYTFGQGTKVEIKR
In the case of B11, in experiment [1], the dissociation constant (Kd) was 0.018 nM.

B12: DT02-K-044-088 in Pascolizumab-(GSTVAAPS)3-T mAb-dAb format (bispecific antibody, part only; not given: pascolizumab chains and linker, not shown: another chain or arm of the molecule; large carriers; small tags and cut ends)
dAb: DIQMTQSPSSLSASVGDRVTITCRASQWIGPELNWYQQKPGKAPKLLIYHGSILQSGVPSRFSGSGSGTDFTLTISSLQPEDFATYYCQQYMYYPHTFGQGTKVEIKR
As to B12, the Kd in experiment [1] was 0.052 nM.

B13: DT02-K-044-092 in Pascolizumab-(GSTVAAPS)3-T mAb-dAb format (bispecific antibody, part only; not given: pascolizumab chains and linker, not shown: another chain or arm of the molecule; large carriers; small tags and cut ends)
dAb: DIQMTQSPSSLSASVGDRVTITCRASQWIGPELTWYQQKPGKAPKLLIYHGSILQSGVPSRFSGSGSGTDFTLTISSLQPEDFATYYCQQYMYYPHTFGQGTKVEIKR
As for B13, the Kd in experiment [1] is 0.003 nM.

B14: DT02-K-044-232 in Pascolizumab-(GSTVAAPS)3-T mAb-dAb format (bispecific antibody, part only; not given: pascolizumab chains and linker, not shown: another chain or arm of the molecule; small tags and cut ends)
dAb: DIQMTQSPSSLSASVGDRVTITCRASQWIGPELSWYQQKPGKAPKLLIYHGSILQSGVPSRFSGSGSGTDFTLTISSLQPEDFATYYCQQYMYYPETFGQGTKVEIKR
As for B14, in experiment [1], the Kd is 0.004 nM.

B15: DT02-K-044-087 in Pascolizumab-(GSTVAAPS)3-T mAb-dAb format (bispecific antibody, part only; not given: pascolizumab chains and linker, not shown: another chain or arm of the molecule; large carriers; small tags and cut ends)
dAb: DIQMTQSPSSLSASVGDRVTITCRASQWIGPELMWYQQKPGKAPKLLIYHGSILQSGVPSRFSGSGSGTDFTLTISSLQPEDFATYYCQQYMYYPHTFGQGTKVEIKR
On to B15, for which the Kd in experiment [1] is 0.005 nM.

B16: DT02-K-044-229 in Pascolizumab-(GSTVAAPS)3-T mAb-dAb format (bispecific antibody, part only; not given: pascolizumab chains and linker, not shown: another chain or arm of the molecule; small tags and cut ends)
dAb: DIQMTQSPSSLSASVGDRVTITCRASQWIGPELSWYQQKPGKAPKLLIYHGSILQSGVPSRFSGSGSGTDFTLTISSLQPEDFATYYCQQYMYYPATFGQGTKVEIKR
Turning to B16, the dissociation constant (Kd) in experiment [1] is 0.002 nM.

B17: DT02-K-044-230 in Pascolizumab-(GSTVAAPS)3-T mAb-dAb format (bispecific antibody, part only; not given: pascolizumab chains and linker, not shown: another chain or arm of the molecule; small tags and cut ends)
dAb: DIQMTQSPSSLSASVGDRVTITCRASQWIGPELSWYQQKPGKAPKLLIYHGSILQSGVPSRFSGSGSGTDFTLTISSLQPEDFATYYCQQYMYYPCTFGQGTKVEIKR
Regarding B17, the Kd in experiment [1] is 0.023 nM.

Values taken from patent US20130236467A1 (published 2013).
